Values belong to the binder of their own block, whether it stands above or below them.
Key:
[1] = biological target: target expressed in cell line for the HER2/CD276 trivalent molecules (HER2 and/or CD276; cell line not named); test: titration binding FACS, target cell line not named
CD276 on HEK293T cells = biological target: T1, CD276 on HEK293T cells (UniProt Q5ZPR3 29-534, limits assumed); test: FACS titration on HEK293T cells (the line used for CD276 binding evaluation), GeoMFI (RL1-H); control cell line Jurkat E6-1
T1 construct: whole, on cells
T1 sequence (looked up): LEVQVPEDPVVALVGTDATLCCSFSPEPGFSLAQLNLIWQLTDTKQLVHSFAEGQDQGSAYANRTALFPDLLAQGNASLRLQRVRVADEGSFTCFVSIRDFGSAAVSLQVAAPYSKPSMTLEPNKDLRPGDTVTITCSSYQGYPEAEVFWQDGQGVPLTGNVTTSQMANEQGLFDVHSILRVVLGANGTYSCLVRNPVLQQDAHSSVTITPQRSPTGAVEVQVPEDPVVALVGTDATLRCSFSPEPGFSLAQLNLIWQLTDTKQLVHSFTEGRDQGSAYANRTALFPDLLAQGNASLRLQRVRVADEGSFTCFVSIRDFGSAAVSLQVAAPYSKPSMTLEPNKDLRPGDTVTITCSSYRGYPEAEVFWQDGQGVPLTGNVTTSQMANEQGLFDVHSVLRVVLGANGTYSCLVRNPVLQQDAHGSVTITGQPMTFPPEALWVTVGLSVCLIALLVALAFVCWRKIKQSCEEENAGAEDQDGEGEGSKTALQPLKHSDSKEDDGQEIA
Method: Subsequently the EC50 of antibodies samples was determined by titration binding FACS on Daudi cells (for CD38 binding evaluation), on THP-1 cells (for CD33 binding evaluation), on A-431 cells (for EGFR binding evaluation), on MKN-45 cells (for CEACAMS binding evaluation) and on HEK293T (for CD276 binding evaluation). Jurkat E6-1 or HEK293T cell lines were used as negative control, as applicable.

EC50 [1]: 12.4 nM | binding result (CD276 on HEK293T cells): binds
B1: HER2/CD276_23F11-DOTA(humanized fab)-p53 (bispecific antibody)
light: QVQLQESGGGSVQAGGSLKLTCAASGYIFNSCGMGWYRQSPGRERELVSRISGDGDTWHKESVKGRFTISQDNVKKTLYLQMNSLKPEDTAVYFCAVCYNLETYWGQGTQVTVSSGGGSGGGSGGGSGGGGSQAVVTQEPSLTVSPGGTVTLTCGSSTGAVTASNYANWVQQKPGQAPRGLIGGHNNRPPGVPARFSGSLLGGKAALTLLGAQPEDEAEYYCALWYSDHWVIGGGTKLTVLGQPKANPTVTLFPPSSEELQANKATLVCLISDFYPGAVTVAWKADGSPVKAGVETTKPSKQSNNKYAASSYLSLTPEQWKSHRSYSCQVTHEGSTVEKTVAPTECS
heavy: QVQLVESGGGLVQAGGSLRLSCAASGRTFSRQVMGWFRQAPGKERAFVAAISGSGGTTMYAGSVKGRFTISKDNAKNMVYLQMNSLKPEDTAVYYCNTVTPYDSWGQGTQVTVSSGGGGSGGGGSGGGGSGGGGGSHVQLVESGGGLVQPGGSLRLSCAASGFSLTDYGVHWVRQAPGKGLEWLGVIWSGGGTAYNTALISRFTISRDNSKNTLYLQMNSLRAEDTAVYYCARRGSYPYNYFDAWGQGTLVTVSSASTKGPSVFPLAPSSKSTSGGTAALGCLVKDYFPEPVTVSWNSGALTSGVHTFPAVLQSSGLYSLSSVVTVPSSSLGTQTYICNVNHKPSNTKVDKKVEPKSCGGGGSGGGGSKPLDGEYFTLQIRGRERFEMFRELNEALELKDAQAGKEPGGSGGAP
notes: Three specificities (HER2 VHH, CD276 VHH, humanized DOTA Fab); also called YM00053; molecule 17

EC50 [1]: 90.2 nM | binding result (CD276 on HEK293T cells): binds
B2: HER2/CD276_23A04-DOTA(humanized fab)-p53 (bispecific antibody)
light: B1 light
heavy: QVQLVESGGGLVQSGDSLRLSCGWSGRTFSGYAMGWFRKAPGKDYEFVAAISVSETKTRYADSIRGRFTISRDNAKNTVYLQMNSLKPEDTAVYYCAASRSGVVGGREPTRYNYWGQGTQVTVSSGGGGSGGGGSGGGGSGGGGGSHVQLVESGGGLVQPGGSLRLSCAASGFSLTDYGVHWVRQAPGKGLEWLGVIWSGGGTAYNTALISRFTISRDNSKNTLYLQMNSLRAEDTAVYYCARRGSYPYNYFDAWGQGTLVTVSSASTKGPSVFPLAPSSKSTSGGTAALGCLVKDYFPEPVTVSWNSGALTSGVHTFPAVLQSSGLYSLSSVVTVPSSSLGTQTYICNVNHKPSNTKVDKKVEPKSCGGGGSGGGGSKPLDGEYFTLQIRGRERFEMFRELNEALELKDAQAGKEPGGSGGAP
notes: Three specificities (HER2 VHH, CD276 VHH, humanized DOTA Fab); also called YM00052; molecule 18
